This passage reports Kd results from PMC2115537 (The Journal of Cell Biology, 1989).

This experiment deals with F-actin (rabbit skeletal muscle actin filaments) (rabbit, UniProt P68135 1-377). The experiment is described as follows: co-sedimentation.

B1: dephosphorylated synapsin I (natural protein)
chain: not shown
Regarding B1, binding was put at a Kd of 2 µM.

B2: synapsin I phosphorylated on all three sites (natural protein)
chain: not shown
modifications: phosphorylated on all three sites (sites 1, 2 and 3); 2.6 mol phosphate/mol synapsin I
As for B2, the Kd (commonly the concentration at which binding is half-saturated) is 1.8 µM.
